The conditions of series [1]: simulated gi fluid.
Procedure: (§1) Nutritive polypeptide half-life during simulated digestion. One metric for quantifying the breakdown of polypeptides from an intact form to smaller peptides is the intact half-life. In this experiment the nutritive polypeptide was exposed to a series of proteases that are active in the stomach (pepsin) and intestine (trypsin and chymotrypsin), and the presence of intact protein was measured over time. Specifically, the nutritive polypeptide was first treated at a concentration of 2 g/L with simulated gastric fluid (SGF) (0.03 M NaCl, titrated with HCl to pH 1.5 with a final pepsin: polypeptide ratio of 1:20 w/w) at 37° C. Time points were sampled from the reaction and quenched by addition of 0.2 M Na2CO3. […] Time points were sampled from the reaction and quenched by addition of Trypsin/Chymotrypsin Inhibitor (Sigma) solution until 240 min.
(§2) Time point samples were analyzed for intact protein by chip electrophoresis, polyacrylamide gel electrophoresis, or western blot. For chip electrophoresis (Labchip GX II), samples were analyzed using a HT Low MW Protein Express LabChip® Kit (following the manufacturer's protocol). A protein ladder was loaded every 12 samples for molecular weight determination (kDa) and quantification. For polyacrylamide gel electrophoresis, samples (1 μg) were separated on a NuPAGE® Novex® Bis-Tris Precast gel (Life Technologies) according to the manufacturer's protocol. The gel was stained using SimplyBlue™ SafeStain (Invitrogen) and imaged using a Chemidoc XRS+ (BioRad) or transferred onto nitrocellulose membranes using the iBlot® Dry Blotting System (Life Technologies) and iBlot® Western Detection Kit (Life Technologies) according to the manufacturer's protocol. Proteins were detected by blotting with Anti-His [C-term]-HRP antibody diluted 3:5000 in Blok™-PO Blocking Buffer using the SNAP i.d.® Protein Detection System (Millipore) according to the manufacturer's protocol. Blots were treated with Luminata Classico Western HRP Substrate (Millipore) according to the manufacturer's protocol and imaged using chemiluminescent detection on the Molecular Imager® Gel Doc™ XR+ System (Bio-Rad). Quantification of intact protein was determined by densitometry using ImageLab (BioRad). For all analysis methods the relative concentration of the polypeptide at each time point (if detected) was plotted overtime and fit to an exponential curve to calculate the intact half-life.
(§3) Specifically, the t=0 (enzyme-free control) and t=2 min samples from the SGF digest were analyzed for intact protein as described by chip electrophoresis, SDS-PAGE, western blot, and/or LC-MS/MS. Relative quantities of polypeptides at each time point were determined and the percentage of intact protein remaining at t=2 was determined.
The conditions of series [2]: rat, in vivo, po.
Procedure: (§4) Rat pharmacokinetic studies. Male Sprague Dawley rats with indwelling jugular vein cannula (JVC) were purchased from Harlan Laboratories and acclimated to the Test Facility (Agilux Laboratories) for at least two days prior to study initiation. Prior to dose administration animals were fasted overnight (11-13 h) and remained fasted until completion of the study. Test articles were orally administered via a bulb-tipped 18 gauge stainless steel gavage needle attached to a syringe. The weight of all dose syringes were recorded prior to and following dosing to more accurately determine the amount of solution dosed. Serial blood samples (˜300 μL) were collected from the JVC at time 0 (pre-dose) and 0.25, 0.5, 1, 2, and 4 h post-dose. Blood samples were collected into tubes containing the anti-coagulant K2EDTA, a general protease inhibitor cocktail (Sigma P8340, diluted 1:100 in whole blood), and a DPP IV inhibitor (Millipore DPP4, diluted 1:100 in whole blood). Immediately following blood collection tubes were vortexed and stored on wet ice until processing to plasma by centrifugation (3,500 rpm at 5° C.) within 1 h of collection. Plasma samples were then transferred into new tubes and stored at −80° C.
(§5) The concentration of Glu, Ser, His, Gly, Thr, Arg, Ala, Tyr, Val, Met, Phe, Ile, Leu, and Lys in the plasma samples was determined by HPLC amino acid analysis, as described herein. Prior to HPLC amino acid analysis, insoluble particles were removed from plasma samples by centrifugation (1100×g at 4° C.) for 10 min. A 25 μL sample of the soluble fraction was then transferred to a 96-well plate, for some samples an internal standard (Norvaline, Agilent) was added to each plasma sample at final concentration of 0.5 mM.
For series [3] the following is noted: rat, in vivo.
Procedure: A rat pharmacokinetic study with oral administration of native and modified forms of SEQID-00363 was performed as described herein. The indigestible marker Cobalt-EDTA was formulated at 50 mg/L in the dosed protein solutions to monitor differences in intestinal transit rate between treatment groups and individual rats. Following the final blood collection (at t=4 h) rats were euthanized and the terminal ileum (20 cm of small intestine prior to the cecum) and its contents (the digesta) were collected into a pre-weighed tube. The ileum was flushed with saline and pooled with the digesta. The pH of the digesta was adjusted to ˜3.0 with HCl in order to inactivate all enzymes. The ileum samples were placed into separate pre-weighed 15 mL conical tubes. All samples were flash frozen in liquid nitrogen, and stored at −80° C. until further analysis. Individual ileum and ileum content weights were calculated and recorded for each sample.
A sample of the digesta, which exists as a heterogenous solution containing insoluble particles, was used in the Coomassie Plus Protein Assay, as described herein, to determine protein concentration.
The nature of series [4]: Rat pharmacokinetic studies, plasma amino acids by HPLC. The following applies: oral administration to rats, doses of Table E33A.
Procedure: as §4, §5
A short description of series [5]: Intact half-life during simulated gastric fluid (SGF) digestion. Conditions: SGF pH 1.5, pepsin:polypeptide 1:20 w/w, 37° C.; produced in E. coli unless otherwise noted.
Procedure: as §1, §2, §3
Series [6] in a line: Pancreatin-based in vitro digestion, free amino acids by RP-HPLC. Conditions: after 120 min SGF, Pancreatin SIF pH 6.5.
Procedure: In this method, pancreatin, a mixture of enzymes, is used to simulate intestinal proteases. Specifically, the digestion of polypeptides into amino acids was analyzed by an in vitro Pancreatin-based digestion assay followed by free amino acid analysis using reversed phase HPLC (RP-HPLC). The nutritive polypeptide was added to SGF (0.92 g/L Pepsin (Sigma), 0.03 M NaCl titrated with HCl to pH 1.5) at a final concentration of 4 g/L and incubated at 37° C. for 120 min. After 120 min, Na2CO3 was added to a final concentration of 16 mM to quench the pepsin reaction. […] Time points were sampled from the reaction and quenched by heating to 95° C. for 5 min. Control samples were protease-free.
Analyses were performed using an Agilent 1100 series system. Primary amino acids were derivitized pre-column at room temperature, online, using o-phthalaldehyde (OPA). The OPA-derivatives were separated using the Zorbax Eclipse-AAA 4.6×150 mm, 3.5 μm column at 40° C. The separation gradient transitioned from 100% 40 mM Na2HPO4 pH 7.8 to 65% acetonitrile/methanol/water mixture (45/45/10) over 23 minutes. Analytes were detected by fluorescence at 340 nm Ex/450 nm Em.
Series [7] can be described thus: Solubility of proteins (lyophilized/reconstituted or ultrafiltered). Conditions: produced in E. coli unless otherwise noted.
A short description of series [8]: Oral pharmacokinetics in humans, plasma amino acid concentrations. On the set-up: species or system human. The following applies: in vivo. The procedure: The anabolic response to protein ingestion is predicated on the delivery of essential amino acids. The purpose of this study was to examine the changes in plasma amino acid concentrations in response to various proteins over a period of 240 minutes. […] Subjects were fasted overnight (>8 hrs) before oral pharmacokinetic study. […] Plasma amino acid concentrations were quantified by Quest Diagnostics or Laboratory Corporation of America. […] FIGS. 64-67 show the plasma time course of each measured amino acid and the aggregate groups, essential amino acids (EAA), branched chain amino acids (BCAA), and total amino acids (TAA), for WPI and SEQID-105. […] Subjects were fasted overnight (>8 hrs) before oral pharmacokinetic study. […] Plasma amino acid concentrations were quantified by Quest Diagnostics or Laboratory Corporation of America. The purpose of this study was to examine the changes in plasma amino acid concentrations in response to a methionine deficient nutritive protein over a period of 240 minutes. […] Plasma amino acid concentrations were quantified by Quest Diagnostics or Laboratory Corporation of America.

Read-outs that look alike come from different tables or passages of the source.

B1: Deglycosylated SEQID-00363: SEQID-00363 with mannose glycans enzymatically reduced (protein)
chain: ATLDSWLSNEATVARTAILNNIGADGAWVSGADSGIVVASPSTDNPDYFYTWTRDSGLVLKTLVDLFRNGDTSLLSTIENYISAQAIVQGISNPSGDLSSGAGLGEPKFNVDETAYTGSWGRPQRDGPALRATAMIGFGQWLLDNGYTSTATDIVWPLVRNDLSYVAQYWNQTGYDLWEEVNGSSFFTIAVQHRALVEGSAFATAVGSSCSWCDSQAPEILCYLQSFWTGSFILANFDSSRSGKDANTLLGSIHTFDPEAACDDSTFQPCSPRALANHKEVVDSFRSIYTLNDGLSDSEAVAVGRYPEDTYYNGNPWFLCTLAAAEQLYDALYQWDKQGSLEVTDVSLDFFKALYSDAATGTYSSSSSTYSSIVDAVKTFADGFVSIVETHAASNGSMSEQYDKSDGEQLSARDLTWSYAALLTANNRRNSVVPASWGETSASSVPGTCAATSAIGTYSSVTVTSWPSIVATGGTTTTATPTGSGSVTSTSKTTATASKTSTSTSSTSCTTPTAVAVTFDLTATTTYGENIYLVGSISQLGDWETSDGIALSADKYTSSDPLWYVTVTLPAGESFEYKFIRIESDDSVEWESDPNREYTVPQACGTSTATVTDTWR
modifications: deglycosylated; Aspergillus niger
With B1, the “SGF Half-life (t½)” value in series [1] is 258 s. In addition, the “bioavailability of amino acids (plasma free amino acids over 4 h)” value in series [2] is “did not increase the bioavailability of Leucine or EAAs, it did increase the bioavailability of Serine and Threonine”. For the same molecule, the “total protein mass in digesta samples” value in series [3] stood at 7.7 mg.

B2: SEQID-00352: nutritive polypeptide naturally produced in Corn, recombinantly expressed in E. coli (protein)
chain: MATKRSVGTLGEADLKGKKVFVRADLNVPLDDAQKITDDTRIRASVPTIKFLLEKGAKVILASHLGRPKGVTPKYSLKPLVPRLSELLGVEVVMANDCIGEEVEKLAAALPEGGVLLLENVRFYKEEEKNEPEFAKKLASVADLYVNDAFGTAHRAHASTEGVTKYLKPAVAGFLMQKELDYLVGAVANPKKPFAAIVGGSKVSTKIGVIESLLAKVDILILGGGMIYTFYKAQGYSVGKSLVEEDKLELATSLIEKAKAKGVSLLLPTDIVVADKFAADAESKIVPATAIPDDWMGLDVGPDATKTFDEALDTTKTVIWNGPMGVFEFQKFAAGTEAIAKKLAELTTTKGVTTIIGGGDSVAAVEKAGLADKMSHISTGGGASLELLEGKTLPGVLALDDA
modifications: Zea mays
As for B2, the “change in AUC0-4 h for plasma Lys” value in series [4] is given as “increased the change in AUC0-4 h for plasma Lys”. In addition, in series [5], the “SGF Half-life (t½)” value is 12 s. In addition, the “Free Leu (μM) at 120 min time point of Pancreatin digest” value in series [6] was 906.1 µM. In series [7], the Solubility (in general, the concentration that dissolves in the medium under given conditions) was 223 mg/mL.

B3: SEQID-00426: methionine deficient nutritive protein (protein, listed as Thermomyces lanuginosus)
chain: EVSQDLFNQFNLFAQYSAAAYCGKNNDAPAGTNITCTGNACPEVEKADATFLYSFEDSGVGDVTGFLALDNTNKLIVLSFRGSRSIENWIGNLNFDLKEINDICSGCRGHDGFTSSWRSVADTLRQKVEDAVREHPDYRVVFTGHSLGGALATVAGADLRGNGYDIDVFSYGAPRVGNRAFAEFLTVQTGGTLYRITHTNDIVPRLPPREFGYSHSSPEYWIKSGTLVPVTRNDIVKIEGIDATGGNNQPNIPDIPAHLWYFGLIGTCL
As for B3, in series [8], the “plasma EAA time course vs basal, Dunnett multiple comparison test” value was “plasma EAA levels at the 30 and 60 min. time points are significantly different from the basal levels at time 0 min”; the “plasma Methionine over time” value is recorded as “Methionine shows no significant change over time”; the “plasma amino acid levels across time, 1-way ANOVA” value was “significant differences across time for Glu and EAA”. The “SGF Half-life (t½)” value in series [1] (pH 1.5) is 18 s. In addition, the “change in AUC0-4 h for plasma Lys” value in series [2] is recorded as “did not alter the change in AUC0-4 h for plasma Lys”.

The record behind these values is patent publication US20260069656A1, “Nutritive Polypeptides and Formulations Thereof, and Methods of Production and Use Thereof” (Axcella Health Inc., priority 2013, published 2026).
